The target of assay [1] is dimeric human IgG1 (myeloma protein, chemically cross-linked) (human) [IgG part: P01857]. Put plainly: direct binding of 125I-dimeric hIgG1 to transfected COS-7 cells, corrected for expression.
The target is the same in assay [2]. Put plainly: direct binding of 125I-dimeric human IgG1 to transfected COS-7 cells.
Assay [3] deals with mouse beta1 Fc(gamma)R encoded by pFc113 (mouse). The experiment in a line: sheep anti-mouse Ig rosetting on the cells of Table 5.

In assay [1], FcγRII Arg/His131-Ala (receptor) had a percent binding compared to wild-type FcγRII (percent of wild-type) of 21.9 and a percent decrease of hIgG1-dimer binding of 80%.
FcγRII Asp133-Ala (receptor) showed a percent binding compared to wild-type FcγRII (percent of wild-type) in assay [1] of 114.
Same read-out and setting: the same measure for FcγRII Leu115-Ala (receptor): 20.6.
FcγRII Leu159-Ala (receptor): in assay [2], the Ka amounted to 1e+07 M⁻¹ and the fold increase of binding over wild-type FcγRII stood at 10 fold.
Substance FcγRII Lys113-Ala (receptor) had a percent binding compared to wild-type FcγRII (percent of wild-type) in assay [1] of 15.9.
As to FcγRII Phe129-Ala (receptor), in assay [1], the percent binding compared to wild-type FcγRII (percent of wild-type) came to 8.2 and the percent decrease of hIgG1-dimer binding was more than 90%.
In assay [2], FcγRII Phe160-Ala (receptor) displayed a Ka of 1e+07 M⁻¹ and a fold increase of binding over wild-type FcγRII of 10 fold.
In assay [1], FcγRII Pro114-Ala (receptor) returned a percent binding compared to wild-type FcγRII (percent of wild-type) of 53.5.
In turn, FcγRII Pro134-Ala (receptor) had a percent binding compared to wild-type FcγRII (percent of wild-type) in assay [1] of 134.
As for FcγRII Val116-Ala (receptor), in assay [1], the percent binding compared to wild-type FcγRII (percent of wild-type) was found to be 73.5.
For “human FcγRII (wild-type FcγRIIa) encoded by HFc3.0 (receptor)”, the Ka in assay [2] was 1e+06 M⁻¹.
In the case of “irrelevant antibody (background control of Table 5)”, in assay [3], the % rosette formation (background) is less than 5%.
